Assay results reported in patent publication US20030121063.

Experiments:
[1] = molecular target: L1 ENp (L1 ORF2 endonuclease domain) (Homo sapiens) (UniProt O00370); assay: cleavage_in_vitro; conditions: turnover number; Mg greatly preferred over Mn
[2] = system: L1 ENp E43A E43A (Homo sapiens); assay: cleavage_in_vitro; conditions: slightly leaky; 5 mM MgCl2

Sequence of UniProt O00370 (O00370 1-239): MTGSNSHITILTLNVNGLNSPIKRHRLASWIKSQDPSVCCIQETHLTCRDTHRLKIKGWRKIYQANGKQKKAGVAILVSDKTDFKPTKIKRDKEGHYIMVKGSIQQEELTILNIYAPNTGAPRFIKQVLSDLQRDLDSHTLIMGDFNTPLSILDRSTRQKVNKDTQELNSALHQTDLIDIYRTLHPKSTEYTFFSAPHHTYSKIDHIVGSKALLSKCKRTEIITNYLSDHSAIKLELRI

Substance: pBS plasmid, native
- activity (phosphodiester bond cleavages per hour) [1]: 2
- cleavage activity (fold less than wild type) [2]: 20
